Results published in patent publication US10717774B2, “Compositions and methods for treating cancers” (Kiromic, Inc., priority 2016, dated 2020).

Assays:
Type in all cases: cell-based, human
[1] = test system: multiple myeloma cell line U266; assay: MTT assay in U266; conditions: protein alone, 20 μg/mL, 48 hours
Procedure: (§1) The human multiple myeloma cell line U266, ovarian cancer cell line SKOV3, and acute monocytic leukemia cell line THP1 were cultured in RPMI 1640 with 10% FBS. The breast cancer cell line MCF7 was cultured in Dulbecco's modified Eagle's medium (DMEM) with 10% FBS. Drugs were purchased from Merck Millipore and used at the following concentrations: Bortezomib (Bor) 5 nM; Cytarabine (Ara-c) 3.87 μM; Rapamycin (Rapa) 100 nM; Paclitaxel (Pax) 100 nM.
(§2) Cells were seeded in 96-well plates, at a volume of 100 μL cell suspension/well, in quadruplicate. SKOV3 and MCF7 cells were seeded at a density of 100,000 cells/mL. THP1 cells were seeded at a density of at 200,000 cells/mL; whereas, U266 cells were seeded at a density of 300,000 cells/mL. Cells were then treated with CBPI1 or CBPI2 at 20 μg/mL for 48 hours. For the last 24 hours, the appropriate drugs were added. Cell viability was subsequently assayed after 48 hours of incubation with 0.6 mg/mL MTT ((3-(4,5-dimethylthiazolyl-2)-2,5-diphenyltetrazolium bromide; Sigma-Aldrich) for 4 hours. Formazan crystals were dissolved in […] 0.01N HCL/isopropanol. Specific absorbance was measured at 570 nm with subtraction of background at 690 nm.
(§3) Data are represented as means±SD from at least three (3) independent experiments. ***^=P<0.001; **^=P<0.01; *^=P<0.05.

[2] = test system: acute monocytic leukemia cell line THP1; assay: Detection of apoptosis (Annexin-V FITC / propidium iodide flow cytometry) in THP1; conditions: 20 μg/mL 48 hours, in combination with Ara-C 3.87 μM for the last 24 hours; compared to the control cells
Procedure: as §1
(§4) Cells were seeded in 48-well at the same concentrations for the MTT assay. The cells were treated with CBPI1 or CBPI2 at 20 μg/mL for 48 hours. For the last 24 hours, the appropriate drugs were added. […] Finally, 400 μL of Binding Buffer 1× were added to the tube and samples were processed and analyzed using the BD FACSVerse™ System (BD Biosciences). […]
(§5) FIG. 6—After the indicated treatments, the cells were analyzed for apoptosis by flow-cytometry. Plots represent the relative of fluorescence intensities in the green (FL1, horizontal axis) and red (FL2, vertical axis) channels. […] Red fluorescence is thus picked up by the flow-cytometer in the FL2 channel. Each dot represents a fluorescent signal (cell), detected by the flow-cytometer. […]

[3] = test system: ovarian cancer cell line SKOV3; assay: Detection of apoptosis (Annexin-V FITC / propidium iodide flow cytometry) in SKOV3; conditions: for apoptotic rate of SKOV3 cells: 20 μg/mL 48 hours, combined with Paclitaxel (Pax) 100 nM for the last 24 hours, compared with Paclitaxel alone
Procedure: as §1
Cells were seeded in 48-well at the same concentrations for the MTT assay. The cells were treated with CBPI1 or CBPI2 at 20 μg/mL for 48 hours. For the last 24 hours, the appropriate drugs were added. After 48 hours, the cells were washed with cold 1×PBS, resuspended in “Binding buffer 1×” (i.e., HEPES 0.01M; NaCl 0.14M; and CaCl2 2.5 mM) and incubated for 15 minutes with Annexin-V FITC (BD Biosciences)+Propidium Iodide (2.5 μg/mL final; Sigma-Aldrich) in the dark. Finally, 400 μL of Binding Buffer 1× were added to the tube and samples were processed and analyzed using the BD FACSVerse™ System (BD Biosciences).
as §3
FIG. 6—After the indicated treatments, the cells were analyzed for apoptosis by flow-cytometry. Plots represent the relative of fluorescence intensities in the green (FL1, horizontal axis) and red (FL2, vertical axis) channels. The apoptosis detector, Annexin-V, is linked to a green fluorescent molecule (FITC), and produces a fluorescent signal in the FL1 channel. Cells in late apoptosis are unable to pump propidium iodide (PI) out of the cytoplasm, and are therefore red fluorescent. Red fluorescence is thus picked up by the flow-cytometer in the FL2 channel. Each dot represents a fluorescent signal (cell), detected by the flow-cytometer. Each dot-plot is divided into 4 quadrants. From bottom-left and proceeding counter-clockwise, these are Q1, Q2, Q3, and Q4. […]

[4] = test system: ovarian cancer cell line SKOV3; assay: MTT assay in SKOV3; conditions: for combined effect with Pax compared to Paclitaxel alone by MTT assay: 20 μg/mL 48 hours plus Paclitaxel 100 nM for the last 24 hours; for viability of metabolically-active cells (MTT): protein alone, 20 μg/mL, 48 hours, compared to the control cells
Procedure: as §1, §2, §3

[5] = test system: breast cancer cell line MCF7; assay: MTT assay in MCF7; conditions: protein alone, 20 μg/mL, 48 hours
Procedure: as §1, §2, §3

[6] = test system: multiple myeloma cell line U266; assay: Detection of apoptosis (Annexin-V FITC / propidium iodide flow cytometry) in U266; conditions: 20 μg/mL 48 hours, combined with Bortezomib (Bor) 5 nM for the last 24 hours; compared with Bor alone
Procedure: as §1, §4, §5

[7] = test system: acute monocytic leukemia cell line THP1; assay: MTT assay in THP1; conditions: protein alone, 20 μg/mL, 48 hours
Procedure: as §1, §2, §3

[8] = test system: breast cancer cell line MCF7; assay: Detection of apoptosis (Annexin-V FITC / propidium iodide flow cytometry) in MCF7; conditions: protein alone, 20 μg/mL, 48 hours; compared to the control cells
Procedure: as §1, §4, §5

Molecule | viability of metabolically-active cells (MTT) [1] | apoptotic rate of THP1 cells [2] | apoptotic rate of SKOV3 cells [3] | combined effect with Pax compared to Paclitaxel alone by MTT assay [4] | viability of metabolically-active cells (MTT) [4] | apoptosis in ovarian cancer cells ([3]; protein alone, 20 μg/mL, 48 hours, SKOV3) | viability of metabolically-active cells (MTT) [5] | U266 cells apoptosis rate [6] | viability of metabolically-active cells (MTT) [7] | MCF7 cells apoptotic rate [8]
CBPI1: novel Gal-3 N-terminal truncation protein, identical in sequence to native Gal-3 amino acids 109-250 (protein) APAGPLIVPYNLPLPGGVVPRMLITILGTVKPNANRIALDFQRGNDVAFHFNPRFNENNRRVIVCNTKLDNNWGREERQSVFPFESGKPFKIQVLVEPDHFKVAVNDAHLLQYNHRVKKLNEISKLGISGDIDLTSASYTMI | significantly decrease | significantly increase | significantly increase | not evident | significantly decrease | – | – | – | – | –
CBPI2: novel Gal-3 N-terminal truncation protein, deletes amino acids 1-112, substitutions P113A, L114V, Y118N, and T248N (protein) AVIVPNNLPLPGGVVPRMLITILGTVKPNANRIALDFQRGNDVAFHFNPRFNENNRRVIVCNTKLDNNWGREERQSVFPFESGKPFKIQVLVEPDHFKVAVNDAHLLQYNHRVKKLNEISKLGISGDIDLTSASYNMI | significantly decrease | significantly increase | significantly increase | not evident | significantly decrease | effective in causing apoptosis | significantly decreases | significantly increase | significantly decreases | significantly increases
